According to IntAct's records for PubMed 18029035:

B1: Coiled-coil domain-containing protein 50 (Homo sapiens), Q8IVM0 (parent)
chain: MAEVSIDQSKLPGVKEVCRDFAVLEDHTLAHSLQEQEIEHHLASNVQRNRLVQHDLQVAKQLQEEDLKAQAQLQKRYKDLEQQDCEIAQEIQEKLAIEAERRRIQEKKDEDIARLLQEKELQEEKKRKKHFPEFPATRAYADSYYYEDGGMKPRVMKEAVSTPSRMAHRDQEWYDAEIARKLQEEELLATQVDMRAAQVAQDEEIARLLMAEEKKAYKKAKEREKSSLDKRKQDPEWKPKTAKAANSKSKESDEPHHSKNERPARPPPPIMTDGEDADYTHFTNQQSSTRHFSKSESSHKGFHYKH

Variants of: B1
Conditions: with ubb_human UBB

Variant	effect of a mutation on the interaction
MAEVSIDQSKLPGVKEVCRDFAVLEDHTLAHSLQEQEIEHHLASNVQRNRLVQHDLQVAKQLQEEDLKAQAQLQKRYKDLEQQDCEIAQEIQEKLAIEAERRRIQEKKDEDIARLPQEKELQEEKKRKKHFPEFPATRAYADSYYYEDGGMKPRVMKEAVSTPSRMAHRDQEWYDAEIARKLQEEELLATQVDMRAAQVAQDEEIARLLMAEEKKAYKKAKEREKSSLDKRKQDPEWKPKTAKAANSKSKESDEPHHSKNERPARPPPPIMTDGEDADYTHFTNQQSSTRHFSKSESSHKGFHYKH [L116P]	decreasing interaction
